T1: SEZ6L (293-SEZ6L) (Homo sapiens, UniProt Q9BYH1)
T1 construct: expressed in transfected cells; host or cells: HEK 293
T1 sequence (Q9BYH1 29-1024): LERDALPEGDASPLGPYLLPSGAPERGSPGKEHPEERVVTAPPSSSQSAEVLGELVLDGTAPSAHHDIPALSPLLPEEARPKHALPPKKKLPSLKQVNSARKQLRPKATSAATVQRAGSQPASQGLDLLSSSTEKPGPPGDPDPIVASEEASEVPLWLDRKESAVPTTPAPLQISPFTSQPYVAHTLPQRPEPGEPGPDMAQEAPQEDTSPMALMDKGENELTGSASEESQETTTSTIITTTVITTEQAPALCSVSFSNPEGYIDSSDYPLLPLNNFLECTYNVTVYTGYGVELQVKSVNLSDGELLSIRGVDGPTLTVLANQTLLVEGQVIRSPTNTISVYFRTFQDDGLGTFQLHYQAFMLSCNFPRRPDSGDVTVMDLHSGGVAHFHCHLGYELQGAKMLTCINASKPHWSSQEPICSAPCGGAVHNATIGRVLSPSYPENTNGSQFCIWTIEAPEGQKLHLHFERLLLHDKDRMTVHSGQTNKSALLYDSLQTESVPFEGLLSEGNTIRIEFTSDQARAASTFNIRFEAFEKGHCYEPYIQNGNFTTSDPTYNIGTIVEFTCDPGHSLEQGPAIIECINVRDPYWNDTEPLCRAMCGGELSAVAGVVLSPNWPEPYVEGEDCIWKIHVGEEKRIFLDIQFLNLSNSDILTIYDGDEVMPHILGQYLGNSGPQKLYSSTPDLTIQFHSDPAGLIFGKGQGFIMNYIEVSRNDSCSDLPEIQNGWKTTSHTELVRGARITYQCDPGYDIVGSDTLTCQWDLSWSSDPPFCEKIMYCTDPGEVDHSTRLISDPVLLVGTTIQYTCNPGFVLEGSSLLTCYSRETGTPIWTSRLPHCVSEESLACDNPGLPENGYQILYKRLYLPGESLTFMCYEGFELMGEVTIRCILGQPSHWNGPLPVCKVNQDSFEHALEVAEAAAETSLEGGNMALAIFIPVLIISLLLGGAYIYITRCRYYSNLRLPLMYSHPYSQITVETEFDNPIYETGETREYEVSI

T2: SEZ6 (293-SEZ6) (Homo sapiens, UniProt Q53EL9)
T2 construct: expressed in transfected cells; host or cells: HEK 293
T2 sequence (Q53EL9 20-994): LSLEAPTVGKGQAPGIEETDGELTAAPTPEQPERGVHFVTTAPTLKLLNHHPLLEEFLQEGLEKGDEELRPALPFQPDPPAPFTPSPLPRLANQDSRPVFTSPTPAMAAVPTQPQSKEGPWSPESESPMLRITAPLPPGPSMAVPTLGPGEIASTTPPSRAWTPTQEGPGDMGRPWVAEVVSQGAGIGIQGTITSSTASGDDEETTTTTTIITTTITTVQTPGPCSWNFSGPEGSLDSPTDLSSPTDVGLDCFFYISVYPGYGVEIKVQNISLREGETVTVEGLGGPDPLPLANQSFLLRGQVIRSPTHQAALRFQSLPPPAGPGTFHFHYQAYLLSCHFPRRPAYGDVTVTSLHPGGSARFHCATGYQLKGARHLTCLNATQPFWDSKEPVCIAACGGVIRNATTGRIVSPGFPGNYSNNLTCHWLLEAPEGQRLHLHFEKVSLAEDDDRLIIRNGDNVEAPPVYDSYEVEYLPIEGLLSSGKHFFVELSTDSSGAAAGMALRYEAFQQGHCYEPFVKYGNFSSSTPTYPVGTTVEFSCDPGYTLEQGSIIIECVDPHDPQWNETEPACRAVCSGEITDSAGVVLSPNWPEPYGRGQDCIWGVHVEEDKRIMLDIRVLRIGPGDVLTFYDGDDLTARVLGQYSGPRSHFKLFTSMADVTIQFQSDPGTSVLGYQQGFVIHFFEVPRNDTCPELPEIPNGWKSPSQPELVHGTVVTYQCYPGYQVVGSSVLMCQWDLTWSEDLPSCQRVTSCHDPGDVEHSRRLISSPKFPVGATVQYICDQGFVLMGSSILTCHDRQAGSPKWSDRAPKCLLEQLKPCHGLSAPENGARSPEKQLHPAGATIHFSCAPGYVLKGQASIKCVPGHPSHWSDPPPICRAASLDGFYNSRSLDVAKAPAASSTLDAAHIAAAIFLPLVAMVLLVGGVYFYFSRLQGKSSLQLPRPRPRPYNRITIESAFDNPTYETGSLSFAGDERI


How the values were obtained:
[1] = biological target: T1, SEZ6L (293-SEZ6L); assay: Flow cytometry specificity on overexpressing 293 cells; assay type: binding; conditions: primary antibody 1 ug/ml, live cells on ice
Description: (§1) In order to assess whether SEZ6L2 antibody modulators immunospecifically associate with human SEZ6L2, and to determine whether the same modulators cross-react with SEZ6 and SEZ6L, flow cytometry was performed using a MACSquant™ as per the manufacturer's instructions. More particularly, modulators were tested for cross reactivity to cell lines that overexpress the human homologs of SEZ6 (293-SEZ6), SEZ6L (293-SEZ6L), and SEZ6L2 (293-SEZ6L2).
(§2) Briefly, staining for flow cytometry was performed in lx cold PBS with 0.5% BSA. Primary antibodies (1 ug/ml) were incubated with live cells on ice for one hour. After washing in the same buffer, cells were incubated with Alexa Fluro® 488-conjugated anti-human IgG secondary antibody @1:1000 (709-546-149, Jackson ImmunoResearch) on ice in the dark. After a 30 minute incubation, cells were washed in the same buffer and re-suspended in buffer plus propidium iodide (PI) to identify live cells. As a negative control, cells were incubated with secondary antibody alone. Acquisition of the data was performed on a MACSQuant® Flow Cytometer (Miltenyi Biotec) and analyzed with FlowJo software.

[2] = biological target: T2, SEZ6 (293-SEZ6); assay: as above; assay type: binding; conditions: primary antibody 1 ug/ml, live cells on ice
Description: as §1, §2

[3] = biological target: T3, SEZ6L2 (293-SEZ6L2) (Homo sapiens, UniProt Q6UXD5); assay: as above; assay type: binding; conditions: primary antibody 1 ug/ml, live cells on ice
T3 construct: cDNA encoding the complete mature human SEZ6L2 protein containing a C-terminal FLAG tag was purchased from Origene; FLAG (C); host or cells: HEK 293
T3 sequence (Q6UXD5 28-910): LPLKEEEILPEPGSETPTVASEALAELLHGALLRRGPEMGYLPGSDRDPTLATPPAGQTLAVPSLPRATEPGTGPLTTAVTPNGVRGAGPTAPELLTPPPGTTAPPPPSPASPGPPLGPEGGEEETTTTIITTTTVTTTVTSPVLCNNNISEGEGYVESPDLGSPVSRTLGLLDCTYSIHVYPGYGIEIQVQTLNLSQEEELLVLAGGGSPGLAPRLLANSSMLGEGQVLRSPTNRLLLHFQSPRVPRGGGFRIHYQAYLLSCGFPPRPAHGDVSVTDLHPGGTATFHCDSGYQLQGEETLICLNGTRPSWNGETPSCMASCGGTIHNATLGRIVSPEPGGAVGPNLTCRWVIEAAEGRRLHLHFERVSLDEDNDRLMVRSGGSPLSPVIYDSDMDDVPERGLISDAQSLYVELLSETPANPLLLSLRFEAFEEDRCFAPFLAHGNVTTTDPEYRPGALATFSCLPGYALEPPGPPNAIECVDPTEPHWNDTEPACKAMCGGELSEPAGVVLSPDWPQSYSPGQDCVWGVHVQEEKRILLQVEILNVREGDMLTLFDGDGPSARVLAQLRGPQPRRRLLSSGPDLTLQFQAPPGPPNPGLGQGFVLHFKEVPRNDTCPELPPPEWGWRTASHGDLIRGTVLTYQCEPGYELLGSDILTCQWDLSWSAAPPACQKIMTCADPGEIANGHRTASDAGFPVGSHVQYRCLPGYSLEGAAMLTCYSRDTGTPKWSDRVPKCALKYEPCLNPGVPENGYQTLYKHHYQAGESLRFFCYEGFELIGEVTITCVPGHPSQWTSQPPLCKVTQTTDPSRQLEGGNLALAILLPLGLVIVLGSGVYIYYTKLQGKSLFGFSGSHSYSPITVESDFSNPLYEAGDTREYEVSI
Description: as §1, §2

[4] = biological target: T4, Human SEZ6L2 (Homo sapiens, UniProt Q6UXD5); assay: ForteBio Octet binding kinetics, Protein A biosensors
T4 construct: a protein composed of the extracellular portion of the human SEZ6L2 protein; His6 (C); made in house; host or cells: CHO (ExpiCHO)
T4 sequence (Q6UXD5 28-844 limits assumed): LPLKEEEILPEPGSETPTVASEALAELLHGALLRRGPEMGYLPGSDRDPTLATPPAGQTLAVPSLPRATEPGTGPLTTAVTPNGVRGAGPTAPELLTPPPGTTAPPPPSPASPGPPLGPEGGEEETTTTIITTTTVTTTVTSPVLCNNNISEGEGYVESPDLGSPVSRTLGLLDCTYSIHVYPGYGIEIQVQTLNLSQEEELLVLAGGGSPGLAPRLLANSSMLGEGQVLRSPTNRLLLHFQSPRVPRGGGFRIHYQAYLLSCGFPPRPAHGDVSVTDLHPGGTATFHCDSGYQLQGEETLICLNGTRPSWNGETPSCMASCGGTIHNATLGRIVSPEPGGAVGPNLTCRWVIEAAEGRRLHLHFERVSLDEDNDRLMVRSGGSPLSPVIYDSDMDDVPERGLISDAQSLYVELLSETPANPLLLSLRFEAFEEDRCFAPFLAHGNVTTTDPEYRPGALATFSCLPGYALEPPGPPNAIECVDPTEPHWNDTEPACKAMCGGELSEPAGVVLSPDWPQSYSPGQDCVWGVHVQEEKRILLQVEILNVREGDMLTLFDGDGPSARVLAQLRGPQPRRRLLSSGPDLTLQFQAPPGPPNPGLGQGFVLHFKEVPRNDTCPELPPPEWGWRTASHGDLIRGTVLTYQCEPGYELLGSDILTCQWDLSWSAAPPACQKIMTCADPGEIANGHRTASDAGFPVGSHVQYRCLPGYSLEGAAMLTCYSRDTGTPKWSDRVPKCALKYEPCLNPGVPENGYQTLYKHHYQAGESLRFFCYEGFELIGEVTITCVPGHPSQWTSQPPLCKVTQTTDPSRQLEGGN
Description: (§3) Affinity: The affinity of antibodies to various recombinant SEZ6L2 molecules was determined on an Octet Red (Pall, ForteBio) instrument. After loading reagents into a 96-well plate, the Octet Red with Protein A-conjugated biosensors was programmed as follows: 30 seconds for baseline #1; 120 seconds to immobilize the antibody; 30 seconds for baseline #2; 300 seconds for association of antibody to recombinant SEZ6L2; and 300-600 seconds for dissociation of recombinant SEZ6L2 from the antibody.
(§4) Table 10, below, indicates the KD, Kon, and Koff values for human antibodies 1A1, 3A1, 3A2, and 3A3 and humanized antibodies 16H8, 3E2, 20C4, and 2E4, for both human SEZ6L2 and cynomolgus monkey SEZL2, as determined by ForteBio Data Analysis 9.0 Kinetics software. Briefly, within the ForteBio Octet red96 instrument, Protein A biosensors were incubated with fixed amounts of the test antibody. The biosensors with bound antibody were then rinsed and dipped into wells containing varying concentrations of the recombinant target protein. Approximately 5 different concentrations were independently tested. After a period of time, the biosensors were dipped into buffer to allow the target protein to dissociate from the antibody. The ForteBio software package generated a best-fit curve for each of the profiles of the varying concentrations of target protein. The calculated affinity measurements were analyzed, and the rate constant values from the middle of the linear range were chosen.

[5] = tested on: Cynomolgus monkey SEZ6L2; assay: as above
Description: as §3, §4

[6] = tested on: small cell lung cancer cell line NCI-H209; assay: ADC combined with PARP inhibitor, cell viability; assay type: cell-based, human; conditions: 10 pM conjugate plus olaparib 10 nM to 10 uM, six days
Description: Briefly, the small cell lung cancer cell line NCI-H209, which expresses ˜10,000 copies of SEZ6L2 on the cell surface, was seeded onto 96 well plate at 5000 cells/well Immediately after seeding, 10 pM of 3E2-PBD or isotype control hIgG-PBD (bearing a drug antibody ratio (DAR) of 1.7 and 2.5 respectively) were added to the wells in complete culture medium. A PARP inhibitor (olaparib) was then added to these wells such that the final concentration ranged from 10 nM to 10 uM. The PARP inhibitor was also tested on cells without an ADC. Each treatment was replicated in 2 wells and after six days, the PARP inhibitor plus modulator-mediated PBD cytotoxicity was assessed by quantifying the remaining number of live cells using Cell Titer Glo™. Cell viability was graphed by Prism™ using ratio of cell viability of test conditions to that of control wells treated with growth medium only.

Molecule	binding to 293-SEZ6L cells by flow cytometry [1]	binding to 293-SEZ6 cells by flow cytometry [2]	binding to 293-SEZ6L2 cells by flow cytometry [3]	K(off) [4]	K(on) [4]	K(off) [5]	K(on) [5]	percent viable cells, conjugate combined with PARP inhibitor [6]
3B6: human anti-SEZ6L2 antibody, VH SEQ ID NO: 109, VL SEQ ID NO: 113 (antibody, V domains shown) VH: QVQLVQSGAEVKKPGASVKVSCKASGYTFTAYYMHWVRQAPGQGLEWMGWINPNSGGTNYAQKFQGRVTMTRDTSIDTAYLDLSRLRSDDTAVYYCAKDSGYDWYFDIWGRGTLVTVSSA VL: EIVLTQSPATLSLSPGERATLSCRASQNISSYLAWYQQKPGQAPRLLIYDASNRATGIPARFSGSGSGTDFTLTISSLEPEDFAVFYCQQHSNWPPLTFGGGTKVEIKR	no detectable binding	no detectable binding	recognize a cell line that overexpresses SEZ6L2	–	–	–	–	–
16H8: humanized anti-SEZ6L2 antibody, VH SEQ ID NO: 1, VL SEQ ID NO: 5 (antibody, V domains shown) VH: QIQLVQPGAEVKKPGASVKVSCKASGYTFTSYWMYWVRQAPGQGLEWMGAIYPRDSDTSYNQKFKGRVTMTRVTSTSTVYMELSSLRSEDTAVYYCTRGDYYYGSSYYAMDYWGQGTTVTVSSA VL: DIVMTQSPLSLPVTPGEPASISCSSSKSLLHSNGITYLYWYLQKPGQSPQLLIYRMSNLASGVPDRFSGSGSGTDFTLKISRVEAEDVGVYYCAQMLERPYTFGQGTKVEIKR	no detectable binding	no detectable binding	recognize a cell line that overexpresses SEZ6L2	2.20E−04	6.03E+05	–	–	–
20C4: humanized anti-SEZ6L2 antibody, VH SEQ ID NO: 17, VL SEQ ID NO: 21 (antibody, V domains shown) VH: EVQLVESGGGLVQPGGSLRLSCAASGFTFTDYYMSWVRQAPGKGLEWVALIRNKANGYTTEYSASVKGRFTISRDNSKNSLYLQMNSLRAEDTAVYYCARNGLYGLFAYWGQGTLVTVSSA VL: DIVMTQTPLSIPVTPGEPASISCRSSTSLLESSGKHRLYWYLQKPGQSPQLLIYYMSNLASGVPDRFSGSGSGTDFTLKISRVEAEDFGVYYCMQSLEYPLTFGAGTKVEIKR	no detectable binding	no detectable binding	recognize a cell line that overexpresses SEZ6L2	2.20E−04	6.35E+04	3.18E−04	1.05E+05	–
3E2: humanized anti-SEZ6L2 antibody, VH SEQ ID NO: 9, VL SEQ ID NO: 13 (antibody, V domains shown) VH: EVQLVESGGGLVQPGGSLKLSCAASGFSFNTITMNWVRQASGKGLEWVGRIRSKSNNYATYYADAVKDRFTISRDDSKNTAYLQMNSLKTEDTAVYYCVRGIFSGYVYAMDYWGQGTLVTVSSA VL: DVVMTQSPLSLPVTVGQPASISCRSSQSIVHSNGNTYLEWFQQRPGQSPRVLIYKVSNRFSGVPDRFSGSGSGTDFTLKISRVEAEDVGVYYCFQGSHVPYTFGGGTKLEIKR	no detectable binding	no detectable binding	recognize a cell line that overexpresses SEZ6L2	3.19E−03	1.33E+06	2.95E−03	1.37E+06	–
3E2-PBD (conjugate) VH: EVQLVESGGGLVQPGGSLKLSCAASGFSFNTITMNWVRQASGKGLEWVGRIRSKSNNYATYYADAVKDRFTISRDDSKNTAYLQMNSLKTEDTAVYYCVRGIFSGYVYAMDYWGQGTLVTVSSA VL: DVVMTQSPLSLPVTVGQPASISCRSSQSIVHSNGNTYLEWFQQRPGQSPRVLIYKVSNRFSGVPDRFSGSGSGTDFTLKISRVEAEDVGVYYCFQGSHVPYTFGGGTKLEIKR	–	–	–	–	–	–	–	additive effect
2E4: humanized anti-SEZ6L2 antibody, VH SEQ ID NO: 25, VL SEQ ID NO: 29 (antibody, V domains shown) VH: EVKLVESGGVLVKPGGSLRLSCAASGFTFSKYAMSWVRQAPGKGLEWVSTISSGGSYTYYPDSVKGRFTISRDNARNSLYLQMNSLRAEDTAIYYCTREGGYDEGYAMDYWGQGTTVTVSSA VL: DIVMTQSPDSLAVSLGERATINCRSSQSLVHSYGNTYLHWYQQKPGQPPKLLIYKVSNRFSGVPDRFSGSGSGTDFTLTISSLQAEDVAVYFCSQSTHFRTFGGGTKVEIKR	no detectable binding	no detectable binding	recognize a cell line that overexpresses SEZ6L2	1.33E−03	2.05E+05	1.94E−03	1.63E+05	–

Reference: patent US11634486B2, “Anti-SEZ6L2 antibodies and antibody drug conjugates” (Bluefin BioMedicine, Inc., priority 2016, dated 2023)
